Numbering of substitutions follows the chain as printed. Where two headings read alike, the source gives them in different places.
Experiments:
Cynomolgus monkey IL-17A = target: T1, Cynomolgus monkey IL-17A (Cynomolgus monkey, UniProt A0A2K5TTB0 24-155); test: SPR (Biacore) off-rate
T1 construct: also called cyno IL-17A; cIL-17A

[1] = target: T2, human IL-17A/F heterodimer (human, UniProt Q16552 24-155; Q96PD4 31-163, limits assumed); test: SPR (Biacore) off-rate
T2 construct: bought, made in E. coli (R&D Systems 5194-IL/CF); also called hIL-17A/F; hIL17A/F
Target sequence in this assay (Q16552 24-155 limits assumed, one chain of several): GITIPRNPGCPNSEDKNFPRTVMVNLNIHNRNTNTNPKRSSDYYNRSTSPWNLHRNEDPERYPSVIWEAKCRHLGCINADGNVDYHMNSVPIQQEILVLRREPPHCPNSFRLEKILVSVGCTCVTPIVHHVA

human IL-17A [2] = target: T3, human IL-17A (human, UniProt Q16552 24-155); test: SPR (Biacore) off-rate
T3 construct: secreted form made in Hek293 cells (GenBank U32659); also called hIL-17A; hIL17A
T3 sequence (Q16552 other isoform, or with tags, fused parts or gaps): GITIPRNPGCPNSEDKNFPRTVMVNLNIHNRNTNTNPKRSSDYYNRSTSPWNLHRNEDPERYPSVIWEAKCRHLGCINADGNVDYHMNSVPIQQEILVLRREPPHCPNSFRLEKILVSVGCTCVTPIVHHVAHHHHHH

human IL-17A [3] = target: T3, human IL-17A; test: AlphaScreen IL-17A-IL-17RA (average)
[4] = target: T2, human IL-17A/F heterodimer; test: cell-based or functional assay
Target sequence in this assay (Q16552 24-155 limits assumed, one chain of several): as the sequence (Q16552 24-155 limits assumed, one chain of several) above

human IL-17A [5] = target: T3, human IL-17A; test: cell-based or functional assay
human IL-17F [6] = target: T4, human IL-17F (human, UniProt Q96PD4 31-163); test: method not given
T4 construct: also called hIL-17F; rhIL-17F
T4 sequence: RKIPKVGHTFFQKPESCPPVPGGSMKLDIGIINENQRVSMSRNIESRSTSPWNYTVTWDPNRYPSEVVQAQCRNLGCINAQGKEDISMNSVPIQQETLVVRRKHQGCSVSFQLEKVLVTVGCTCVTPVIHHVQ

[7] = target: T5, human IL-17A/F heterodimer (human, UniProt Q16552 24-155; Q96PD4 31-163, limits assumed, biotinylated with Sulfo-NHS-LC-Biotin in the AlphaScreen assays only); test: SPR Biacore, hIL-17A/F on chip; periplasmic extract (*)
T5 construct: also called hIL-17A/F
Target sequence in this assay (Q16552 24-155 limits assumed, one chain of several): as the sequence (Q16552 24-155 limits assumed, one chain of several) above
Procedure: (§1) Off-rates of the periplasmic extracts containing anti-IL-17 Nanobodies were measured by Surface Plasmon Resonance (SPR) using a Biacore T100 instrument. […] Periplasmic extracts containing IL-17 neutralizing Nanobodies were injected for 2 minutes at a flow rate of 45 μl/min to allow binding to chip-bound antigen. Next, binding buffer without periplasmic extracts was sent over the chip at the same flow rate to allow spontaneous dissociation of bound Nanobody. From the sensorgrams obtained for the different periplasmic extracts koff-values (k₄) were calculated.

human IL-17A [8] = target: T6, human IL-17A (human, UniProt Q16552 24-155, biotinylated with Sulfo-NHS-LC-Biotin in the AlphaScreen assays only); test: cell-based or functional assay
[9] = target: T5, human IL-17A/F heterodimer; test: cell-based or functional assay
Target sequence in this assay (Q16552 24-155 limits assumed, chain 1 of 2, one chain of several): as the sequence (Q16552 24-155 limits assumed, one chain of several) above

human IL-17A [10] = target: T6, human IL-17A; test: SPR Biacore, hIL-17A on chip; periplasmic extract (*)
human IL-17A [11] = target: T6, human IL-17A; test: AlphaScreen competition, hIL-17A - IL-17RA-Fc;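 further: receptor Fc-fusion plus Acceptor and streptavidin Donor beads incubated with the mixture for 1 h at room temperature before reading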
Procedure: (§2) To this mixture, the IL-17RA or IL-17RC Fc-fusions, Acceptor beads and the streptavidin Donor beads were added and further incubated for 1 hour at RT.

[12] = target: T5, human IL-17A/F heterodimer; test: AlphaScreen competition, hIL-17A/F - IL-17RA-Fc
Target sequence in this assay (Q16552 24-155 limits assumed, chain 1 of 2, one chain of several): as the sequence (Q16552 24-155 limits assumed, one chain of several) above
Procedure: as §2

human IL-17A [13] = target: T6, human IL-17A; test: AlphaScreen competition, hIL-17A - IL-17RC-Fc;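 further: Read-out after 1 h at room temperature with the receptor Fc-fusion, Acceptor beads and streptavidin-coated Donor beads present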
Procedure: as §2

[14] = target: T5, human IL-17A/F heterodimer; test: AlphaScreen competition, hIL-17A/F - IL-17RC-Fc
Target sequence in this assay (Q16552 24-155 limits assumed, chain 1 of 2, one chain of several): as the sequence (Q16552 24-155 limits assumed, one chain of several) above
Procedure: as §2

human IL-17F [15] = target: T7, human IL-17F (human, UniProt Q96PD4 31-163, biotinylated with Sulfo-NHS-LC-Biotin in the AlphaScreen assays only); test: SPR Biacore, hIL-17F on chip; periplasmic extract (*); NB = no binding
T7 construct: also called hIL-17F; recombinant human IL-17F
T7 sequence: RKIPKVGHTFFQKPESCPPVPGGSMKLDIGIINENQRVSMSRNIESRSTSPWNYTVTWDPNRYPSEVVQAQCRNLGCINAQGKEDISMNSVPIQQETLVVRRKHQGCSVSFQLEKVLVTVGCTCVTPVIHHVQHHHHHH
Procedure: as §1

human IL-17F [16] = target: T7, human IL-17F; test: AlphaScreen competition, hIL-17F - IL-17RC-Fc
Procedure: as §2

human IL-17F [17] = target: T8, human IL-17F (human, UniProt Q96PD4 31-163); test: competition ELISA IL17F-RC
T8 construct: GenBank AF384857, expressed in Hek293 as 6-His C-terminal tagged protein; also called hIL-17F; IL-17F-6HIS
T8 sequence: T7 sequence
Procedure: (§3) To this end, IL-17RA, respectively IL-17RC was coated at a concentration of 1 μg/ml in PBS.

human IL-17A [18] = target: T9, human IL-17A (human, UniProt Q16552 24-155); test: cell-based or functional assay; remark: listed apart in the source
T9 sequence (Q16552 other isoform, or with tags, fused parts or gaps): as the sequence (Q16552 other isoform, or with tags, fused parts or gaps) above

human IL-17F [19] = target: T8, human IL-17F; test: cell-based or functional assay
human IL-17A [20] = target: T9, human IL-17A; test: competition ELISA IL17A-RA
Procedure: as §3

human IL-17F [21] = target: T10, human IL-17F (human, UniProt Q96PD4 31-163); test: AlphaScreen IL-17F-IL-17RC; vs IL17MS16A04
T10 construct: made in Hek293 cells (GenBank AF384857); also called hIL-17F; hIL17F
T10 sequence: T7 sequence

human IL-17F [22] = target: T10, human IL-17F; test: SPR (Biacore) off-rate
[23] = target: T2, human IL-17A/F heterodimer; test: SPR (Biacore) off-rate; remark: listed apart in the source
Target sequence in this assay (Q16552 24-155 limits assumed, chain 1 of 2, one chain of several): as the sequence (Q16552 24-155 limits assumed, one chain of several) above

T6 sequence (Q16552 other isoform, or with tags, fused parts or gaps): as the sequence (Q16552 other isoform, or with tags, fused parts or gaps) above
T1 sequence (A0A2K5TTB0 entry or part of it): as the sequence (Q16552 24-155 limits assumed, one chain of several) above, with T3A, P8S, N34S, I77V, N78K, P104R counted along it

B1: IL17MS3061 (VHH)
VHH: DVQLVESGGGLVQPGGSLRLSCAASGTIVNIHVMGWYRQAPGKQRELVALIFSGGSADYADSVKGRFTISRDNSKNTVYLQMNSLRPEDTAVYYCAAEIGYYSGGTYYSSEAHWGQGTLVTVSS
notes: variant of IL17MS04G01; Kabat numbering
Work on B1 yielded a koff (Cynomolgus monkey IL-17A) of 0.000181 s⁻¹, a koff [1] of 0.000195 s⁻¹ and a koff (human IL-17A [2]) of 0.000146 s⁻¹. The IC50 (human IL-17A [3]) was 0.027 nM, the “IC50 cell based assay hIL-17A/F (IL-6, HT-1080 cells)” value [4] was 8.15 nM and the “IC50 cell based assay hIL-17A (IL-6, HT-1080 cells)” value (human IL-17A [5]) was 0.94 nM.

B2: 13B03 Fc fusion (Fc fusion)
chain: EVQLVESGGGSVQAGDSLRLSCAASGRANSINWFGWFRQTPGKEREFVAGIRWSDAYTEYANSVKGRFTISRDNAKNTVDLQMDSLKPEDTAVYYCVLDLSTVRYWGQGTQVTVSS
notes: also called 13B03 tested as Fc fusion; not shown: hinge and Fc
With B2 the “fold lower affinity on IL-17F than on IL-17A” value (human IL-17F [6]) was about 10 fold.

B3: 04A02 (VHH)
VHH: EVQLVESGGGLVQPGGSLRLSCAASRNINIINYMAWYRQAPGNQRELVAAMTSDATTEYADSVKGRFTISRDIPENTVYLQMNSLKPEDTAVYYCNAKGIWDYLGRRDFGDYWGQGTQVTVSS
notes: Class 2 Nanobody (anti-IL-17A and IL-17A/F); not shown: c-myc, His6 tag
For B3, the koff [7] was 0.011 s⁻¹, the “IL-17A-induced IL-6 production in HT-1080 cells, Emax” value (human IL-17A [8]) was 102% and the “IL-17A-induced IL-6 production in HT-1080 cells, IC50” value (human IL-17A [8]) was 12.6 nM. The “IL-17A/F-induced IL-6 production in HT-1080 cells, Emax” value [9] was 67.6%, the “IL-17A/F-induced IL-6 production in HT-1080 cells, IC50” value [9] was 70.4 nM and the koff (human IL-17A [10]) was 0.0013 s⁻¹. It also gave an IC50 (human IL-17A [11]) of 0.399 nM, an IC50 [12] of 1.96 nM and an IC50 (human IL-17A [13]) of 0.837 nM. The IC50 [14] was 3.17 nM and the binding result (human IL-17F [15]) was “no binding”.

B4: 09D10 (VHH)
VHH: EVQLVESGGGLVQAGGSLSLSCAASGSVFRIDVMRWHRQAPGKQREFLASIASGGTTNYADSVKGRFTISRDNAKNTVYLQMNSLKPEDTAVYYCGANAESGPYTYWGLGTQVTVSS
notes: as for B3
In the case of B4, the koff [7] is reported as 0.0017 s⁻¹, the “IL-17A-induced IL-6 production in HT-1080 cells, Emax” value (human IL-17A [8]) is reported as 93.5% and the “IL-17A-induced IL-6 production in HT-1080 cells, IC50” value (human IL-17A [8]) is reported as 8.5 nM. The “IL-17A/F-induced IL-6 production in HT-1080 cells, Emax” value [9] was 55%, the “IL-17A/F-induced IL-6 production in HT-1080 cells, IC50” value [9] was 124 nM and the koff (human IL-17A [10]) was 0.00015 s⁻¹. For the same binder, the IC50 (human IL-17A [11]) was 0.211 nM, the IC50 [12] was 9.02 nM and the IC50 (human IL-17A [13]) was 1.12 nM. For the same binder, the IC50 [14] was 8.65 nM and the IC50 (human IL-17F [16]) was 69.4 nM.

B5: SH-Fc-(GS)2-13E02 (Fc fusion, not shown: a dimerising Fc or GST; small tags and cut ends)
chain: EVQLVESGGGLVQAGGSLRLSCAASGRTYDAMGWLRQAPGKEREFVAAISGSGDDTYYADSVKGRFTISKDNAGITMYLQMNSLKPEDTAVYYCATRRGLYYVWDSNDYENWGQGTQVTVSS
notes: also called MSB0010619; SH-(GS)2-Fc-13E02
For B5, the IC50 (human IL-17F [17]) was 0.267 nM, the “IC50, hIL-17A induced IL-6, HT-1080, without HSA” value (human IL-17A [18]) was 0.31 nM and the “IC50, hIL-17F induced IL-6, HT-1080, without HSA” value (human IL-17F [19]) was 4.9 nM. The IC50 (human IL-17A [20]) was 0.112 nM.

B6: 13E02 Fc fusion (Fc fusion)
chain: B5 chain
notes: also called 13E02 tested as Fc fusion; not shown: hinge and Fc
With B6 the “fold lower affinity on IL-17F than on IL-17A” value (human IL-17F [6]) was about 10 fold.

B7: IL17MS3040 (VHH)
VHH: EVQLVESGGGLVQAGGSLRLSCAASGRTFSSYVVGWFRQAPGKEREFIGAISGSGGSIYYAVSEKDRFTISRDNGKNTLYLQMSSLKAEDTAVYYCTADQEFGYLRFGRSEYWGQGTQVTVSS
With B7 the “IC50 fold difference vs WT” value (human IL-17F [21]) was 9.6 fold, the koff (human IL-17F [22]) was 0.00148 s⁻¹ and the koff [23] was 0.00878 s⁻¹.

B8: IL17MS3041 (VHH)
VHH: B7 VHH with G56E
B8 was tested, and the “IC50 fold difference vs WT” value (human IL-17F [21]) was 2.2 fold, the koff (human IL-17F [22]) was 0.000606 s⁻¹ and the koff [23] was 0.00427 s⁻¹.

B9: IL17MS3042 (VHH)
VHH: B7 VHH with G56D, S57T
In the case of B9, the “IC50 fold difference vs WT” value (human IL-17F [21]) is reported as 8.6 fold, the koff (human IL-17F [22]) is reported as 0.00121 s⁻¹ and the koff [23] is reported as 0.005 s⁻¹.

Source: patent publication US20210130452A1 (Merck KGaA, published 2021)
